Target: recombinant HA Victoria (B/Brisbane/60/2008) fused to an HIS-Tag (influenza B virus B/Brisbane/60/2008 (Victoria lineage))
Assay: SPR

Substance: NKp46-Ig (extracellular portion of human NKp46 fused to the Fc portion of human IgG1) (from UniProt O76036 22-258) (Fc fusion)
- fold lower affinity than to the HA of IAV: 7 fold

From article PMC7824211
